Reference: paper PMC10602183 (2023)

Legend:
Experiment in all cases: SPR
Bal gp120 [1] = biological target: T1, Bal gp120 (HIV-1 clade B isolate Bal)
Bal gp120 [2] = biological target: T1, Bal gp120; remark: listed apart in the source
[3] = biological target: autologous gp120 antigen B (HIV-1 clade B isolate 92US715.6)
[4] = biological target: autologous gp120 antigen Czm (HIV-1 clade C isolate 96ZM652)
[5] = biological target: wild type gp120 Env protein AE (HIV-1 clade E isolate 93TH976.17)
[6] = biological target: autologous gp120 antigen A2 (HIV-1 clade A isolate 92UG037.8)

B1: HmAb64 (antibody, V domains shown)
VH: QVQLVQSGAEVKKPGASVKVSCKASGYTFTSYDITWVRQAPGQGLEWMGWISAYNGDTNYAQRLQGRVTMTTDTSTSTAYMELRSLRSDDTAVYYCARAKHTVLVTAMRWFDPWGQGTLVTVSS
VL: DIQMTQSPSSLSASVGDRVTITCRASQSISNYLNWYQQKPGKAPKLLISATSSLQSGVPSRFSGSGSGTDFTLTISSLQPDDFATYYCQQSYSTPWTFGQGTKLEIK
With B1 the Kd (Bal gp120 [1]) was 16 nM, the koff (Bal gp120 [2]) was 0.000459 s⁻¹ and the Kd [3] was 22.9 nM. It also gave a koff [3] of 0.000684 s⁻¹, a Kd [4] of 22.5 nM and a koff [4] of 0.000454 s⁻¹. The Kd [5] was 20 nM, the koff [5] was 0.000423 s⁻¹ and the Kd [6] was 39.4 nM. The koff [6] was 0.000641 s⁻¹.
